The source of these data is article doi:10.1101/655282.

This assay concerns the target SUMO1 (UniProt P63165).

Where no end group is shown, it is not given here. [ ]: non-standard residue; d: D form. pS = N[C@@H](COP(=O)(O)O)C(=O)O

Sequence of UniProt P63165 (P63165 1-97): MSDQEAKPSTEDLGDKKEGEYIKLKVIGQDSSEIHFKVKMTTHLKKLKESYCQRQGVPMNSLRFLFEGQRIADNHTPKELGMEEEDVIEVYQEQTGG

In turn, PLIKQEDIKPEPDFTIQYRNKIIDTAGCIVI[pS]D[pS]EEEQG (also: FITC label, site not given here) [phosphorylated IE2-NTD (IE2-ppNTD)] returned a rate of increase in anisotropy, real-time SUMOylation assay with SUMO1 of 0.00021 min⁻¹. The figure for PLIKQEDIKPEPDFTIQYRNKIIDTAGCIVISDSEEEQG (also: FITC label, site not given here) [IE2 N-Terminal Domain (IE2-NTD), FITC labelled] is 0.00012 min⁻¹.
